Measurements reported in publication PMC3575409, “Identification of a Novel Protein-Protein Interaction Motif Mediating Interaction of GPCR-Associated Sorting Proteins with G Protein-Coupled Receptors” (PLoS ONE, 2013).

Tests used:
[1] = biological target: GST-fused C-tail of the histamine 2 receptor (residues 284–349); test: pull-down; GST-fused receptor C-tails immobilized on glutathione-Sepharose beads, incubated with [35S]-labelled in vitro translated GASPs 1 h at 4°C; 20 mM Tris-HCl pH 7.4, 150 mM NaCl, 1 mM EDTA, 1 mM DTT, 10% glycerol, 1% Triton X-100; Phosphor-imager quantification
GST-fused C-tail of the histamine 2 receptor (residues 284–349), sequence (P25021 284-349): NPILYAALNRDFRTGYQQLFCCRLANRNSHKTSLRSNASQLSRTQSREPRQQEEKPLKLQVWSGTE

[2] = biological target: GST-fused C-tail of the type III transforming growth factor β receptor (residues 805–849); test: as above
GST-fused C-tail of the type III transforming growth factor β receptor (residues 805–849), sequence (Q03167 805-849): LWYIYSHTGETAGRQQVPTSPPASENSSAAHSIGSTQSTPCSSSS

[3] = biological target: T1, GST-fused C-tail of the calcitonin receptor (residues 407–490); test: as above
T1 sequence (P30988 whole entry, species assumed, looked up): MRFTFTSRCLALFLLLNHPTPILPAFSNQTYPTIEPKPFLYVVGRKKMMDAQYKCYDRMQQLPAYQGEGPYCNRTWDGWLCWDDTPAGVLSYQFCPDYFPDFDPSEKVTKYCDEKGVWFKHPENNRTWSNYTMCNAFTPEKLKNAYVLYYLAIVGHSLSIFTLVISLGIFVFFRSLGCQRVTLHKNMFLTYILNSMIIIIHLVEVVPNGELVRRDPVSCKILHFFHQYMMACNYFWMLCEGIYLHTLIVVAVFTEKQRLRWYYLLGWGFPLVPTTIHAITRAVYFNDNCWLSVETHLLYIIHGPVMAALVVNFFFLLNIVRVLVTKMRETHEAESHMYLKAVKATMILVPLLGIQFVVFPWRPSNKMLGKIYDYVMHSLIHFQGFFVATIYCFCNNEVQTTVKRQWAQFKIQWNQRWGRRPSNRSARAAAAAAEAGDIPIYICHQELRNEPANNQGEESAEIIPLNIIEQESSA

[4] = biological target: GST-fused C-tail of the α isoform of the thromboxane A2 receptor (residues 304–343); test: as above
[5] = biological target: GST-fused C-tail of the insulin growth factor I receptor (residues 1268–1367); test: as above
GST-fused C-tail of the insulin growth factor I receptor (residues 1268–1367), sequence (P08069 1268-1367): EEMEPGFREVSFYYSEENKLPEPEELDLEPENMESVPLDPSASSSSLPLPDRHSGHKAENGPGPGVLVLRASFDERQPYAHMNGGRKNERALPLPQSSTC

[6] = biological target: GST-fused C-tail of the δ-opioid receptor (residues 314–372); test: as above
[7] = biological target: GST-fused C-tail of the β1 adrenergic receptor (residues 373–477); test: as above
free GST = test: as above
[8] = biological target: GST-fused C-tail of the muscarinic M1 acetylcholine receptor (residues 414–460); test: as above
[9] = biological target: GST-fused C-tail of the β1 adrenergic receptor (residues 373–477); test: GST pull-down; details: parent: est. 100; read off a plot
[10] = biological target: GST-fused C-tail of the muscarinic M1 acetylcholine receptor (residues 414–460); test: GST pull-down; details: parent: est. 100; read off a plot
[11] = biological target: T1, GST-fused C-tail of the calcitonin receptor (residues 407–490); test: GST pull-down; details: parent: est. 100; read off a plot

GPCR-associated sorting protein 2 (GASP-2), full-length (from UniProt Q96D09) SWFW>AAAA in first GASP motif; SWFW>AAAA in second GASP motif (GASP2-dm; residue numbers not printed), sequence (Q96D09 whole entry, change not shown): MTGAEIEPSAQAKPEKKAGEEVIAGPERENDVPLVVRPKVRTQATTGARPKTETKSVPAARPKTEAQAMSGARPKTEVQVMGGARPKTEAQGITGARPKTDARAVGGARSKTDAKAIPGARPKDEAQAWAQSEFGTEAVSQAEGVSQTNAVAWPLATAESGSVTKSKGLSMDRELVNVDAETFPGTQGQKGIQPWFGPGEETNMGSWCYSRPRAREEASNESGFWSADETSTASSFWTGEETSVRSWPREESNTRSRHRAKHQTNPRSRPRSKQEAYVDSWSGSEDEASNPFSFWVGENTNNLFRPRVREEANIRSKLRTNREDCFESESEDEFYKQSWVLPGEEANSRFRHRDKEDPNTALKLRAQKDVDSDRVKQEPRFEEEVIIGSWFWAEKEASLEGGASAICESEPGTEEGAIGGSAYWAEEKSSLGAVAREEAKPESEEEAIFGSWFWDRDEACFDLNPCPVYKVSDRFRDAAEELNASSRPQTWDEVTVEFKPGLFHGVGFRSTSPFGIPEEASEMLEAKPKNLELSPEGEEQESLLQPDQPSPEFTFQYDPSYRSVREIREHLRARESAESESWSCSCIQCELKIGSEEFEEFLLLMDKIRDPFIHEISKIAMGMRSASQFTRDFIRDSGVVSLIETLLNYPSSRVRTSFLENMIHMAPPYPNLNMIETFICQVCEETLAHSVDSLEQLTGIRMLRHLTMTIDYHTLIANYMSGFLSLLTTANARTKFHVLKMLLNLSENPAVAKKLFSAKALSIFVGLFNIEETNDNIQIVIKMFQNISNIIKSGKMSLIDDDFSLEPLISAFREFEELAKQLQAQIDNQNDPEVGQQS
GASP-9, sequence (Q7L311 whole entry): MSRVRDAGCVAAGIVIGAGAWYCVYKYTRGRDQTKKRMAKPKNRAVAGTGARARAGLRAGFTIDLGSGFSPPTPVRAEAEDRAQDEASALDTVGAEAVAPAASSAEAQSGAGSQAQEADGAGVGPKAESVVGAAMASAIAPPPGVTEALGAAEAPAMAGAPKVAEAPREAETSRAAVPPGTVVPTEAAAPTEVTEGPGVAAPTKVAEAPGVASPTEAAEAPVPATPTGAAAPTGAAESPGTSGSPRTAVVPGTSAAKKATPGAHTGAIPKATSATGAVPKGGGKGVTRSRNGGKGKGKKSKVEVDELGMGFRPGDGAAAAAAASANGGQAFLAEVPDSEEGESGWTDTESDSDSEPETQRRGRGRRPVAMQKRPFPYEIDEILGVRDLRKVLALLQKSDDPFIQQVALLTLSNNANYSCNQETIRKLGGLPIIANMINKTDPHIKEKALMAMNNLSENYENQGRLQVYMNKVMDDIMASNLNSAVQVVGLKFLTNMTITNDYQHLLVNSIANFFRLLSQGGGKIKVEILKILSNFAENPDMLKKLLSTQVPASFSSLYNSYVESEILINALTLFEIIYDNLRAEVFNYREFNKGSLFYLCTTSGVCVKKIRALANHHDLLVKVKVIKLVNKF
GPCR-associated sorting protein 2 (GASP-2), full-length (from UniProt Q96D09) SWFW>AAAA in second GASP motif (GASP2-m2; residue numbers not printed), sequence (Q96D09 whole entry, change not shown): as the sequence (Q96D09 whole entry, change not shown) above
GPCR-associated sorting protein 2 (GASP-2), full-length (from UniProt Q96D09) SWFW>AAAA in first GASP motif (GASP2-m1; residue numbers not printed), sequence (Q96D09 whole entry, change not shown): as above

“GASP-9 (from UniProt Q7L311 1-632) (natural protein)” showed a percent of GASP input retained (% of GASP input) [1] of 2, a percent of GASP input retained (% of GASP input) [2] of under 1 and a percent of GASP input retained (% of GASP input) [3] of 2. It also gave a percent of GASP input retained (% of GASP input) [4] of 2, a percent of GASP input retained (% of GASP input) [5] of under 1 and a percent of GASP input retained (% of GASP input) [6] of 2. For the same substance, the percent of GASP input retained (% of GASP input) [7] was 2, the percent of GASP input retained (% of GASP input) (free GST) was under 1 and the percent of GASP input retained (% of GASP input) [8] was 2.

In the case of “GPCR-associated sorting protein 2 (GASP-2), full-length (from UniProt Q96D09) SWFW>AAAA in first GASP motif (GASP2-m1; residue numbers not printed)”, the percent of parent (% of wild-type GASP-2) [9] is reported as 27 and the percent of parent (% of wild-type GASP-2) [10] is reported as 24.

For “GPCR-associated sorting protein 2 (GASP-2), full-length (from UniProt Q96D09) SWFW>AAAA in first GASP motif; SWFW>AAAA in second GASP motif (GASP2-dm; residue numbers not printed)”, the percent of parent (% of wild-type GASP-2) [11] was 20, the percent of parent (% of wild-type GASP-2) [9] was 1.5 and the percent of parent (% of wild-type GASP-2) [10] was 5.5.

Substance “GPCR-associated sorting protein 2 (GASP-2), full-length (from UniProt Q96D09) SWFW>AAAA in second GASP motif (GASP2-m2; residue numbers not printed)” has a percent of parent (% of wild-type GASP-2) [9] of 11 and a percent of parent (% of wild-type GASP-2) [10] of 20.
